Laboratory results: US20230190950A1, “COMPOSITIONS AND METHODS FOR THE TREATMENT OF BACTERIAL INFECTIONS” (Cidara Therapeutics, Inc., priority 2017, published 2023)

How the values were obtained:
Escherichia coli BW25113 = assay: MIC assay (broth microdilution), Ec BW; type: cell-based; conditions: assay media RPMI A; for MIC, Ec BW + FBS: 50% heat-inactivated FBS
Description: (§1) Bacterial strains were stored as glycerol stocks at −80° C. prior to culturing on cation-adjusted Mueller-Hinton agar (MHA; BD cat. no. 211438) at 37° C. Antibacterial activity was assessed against a panel consisting of Escherichia coli, Acinetobacter baumannii, Pseudomonas aeruginosa, and Klebsiella pneumoniae strains (see Table 2).
(§2) Briefly, stock solutions of all antibacterial agents were prepared fresh in appropriate solvents (i.e. PBS, pH 7.4, DMSO, DI, etc.). Stock concentrations were made at 50× the highest final assay concentration and serially diluted 2-fold, 8 or 12 times in a 96-well PCR plate (VWR cat. no. 83007-374). Bacterial cell suspensions generated from MHA plate cultures were prepared in 0.85% saline and adjusted to ˜0.1 OD600 nm. […] Dorschner R A et al., The mammalian ionic environment dictates microbial susceptibility to antimicrobial defense peptides. FASEB J. 20(1):35-42 (2017). Ninety-eight microliters of each cell suspension in MHB were added to test wells in a 96-well assay plate (Costar cat. no. 3370). A Beckman Multimek 96 liquid handling robot was used to dispense 2 μL of each 50× stock compound into the plate containing 98 μL of each strain in MHB (2% final solvent concentration). E. coli strains BW25113 and ATCC 25922 were run in the presence and absence of 50% heat-inactivated fetal bovine serum (FBS; Sigma, cat. no. F4135-100 mL). Plates were mixed by shaking then incubated at 37° C. overnight (16-20 h).

[1] = test system: Escherichia coli BW25113 + pUC18-mcr-1; assay: MIC assay (broth microdilution), Ec BW (mcr-1); type: cell-based; conditions: assay media RPMI A
Text: An mcr-1 expression plasmid was constructed (GenScript; Piscataway, N.J.) using the pUC18 high copy number plasmid (Yanisch-Perron, et al., 1985). A 1649-bp fragment was synthesized containing, in order from 5′ to 3′: EcoR1 restriction site (5′-GAATTC-3′), a ribosomal binding site (5′-AGGAGG-3′), a 5-bp native start codon upstream sequence (5′-TTCTC-3′) from the mcr-1-bearing plasmid pHNSHP45 (Liu, Y Y, et al., 2015; GenBank Accession #KP347127), the 1626-bp mcr-1 open reading frame with stop codon (“orf00073” of GenBank Accession #KP347127), and finally an Xba1 restriction site sequence (5′-TCTAGA-3′). […] The pUC18-mcr-1 plasmid was transformed into chemically-competent E. coli BW25113 (Coli Genetic Stock Center #7636) as described previously (Chung, et al., PNAS. 1989), recovered for 1 h shaking at 37° C. in Super Optimal broth with Catabolite repression (SOC) media and then aliquots were plated on Luria-Bertani (LB) media containing 100 μg/mL of carbenicillin. Putative transformant colonies were then verified in MIC assays.
as §1
Briefly, stock solutions of all antibacterial agents were prepared fresh in appropriate solvents (i.e. PBS, pH 7.4, DMSO, DI, etc.). Stock concentrations were made at 50× the highest final assay concentration and serially diluted 2-fold, 8 or 12 times in a 96-well PCR plate (VWR cat. no. 83007-374). Bacterial cell suspensions generated from MHA plate cultures were prepared in 0.85% saline and adjusted to ˜0.1 OD600 nm. […] Later, conjugates 16 and 17, and 20-25 were evaluated in RPMI 1640 medium (+) L-glutamine, (+) sodium bicarbonate, pH 7.4 (“RPMI B”; Gibco, cat. no. 11875-085) as has been described as a more physiologically-relevant media for susceptibility testing of antibacterial compounds. […]

[2] = test system: Escherichia coli BW25113 4X-12 (COL-R); assay: MIC assay (broth microdilution), Ec BW 4X-12 (COL-R); type: cell-based; conditions: assay media RPMI A
Description: as §1
(§3) Briefly, stock solutions of all antibacterial agents were prepared fresh in appropriate solvents (i.e. PBS, pH 7.4, DMSO, DI, etc.). Stock concentrations were made at 50× the highest final assay concentration and serially diluted 2-fold, 8 or 12 times in a 96-well PCR plate (VWR cat. no. 83007-374). Bacterial cell suspensions generated from MHA plate cultures were prepared in 0.85% saline and adjusted to ˜0.1 OD600 nm. Next, cell suspensions were diluted 1:200 in RPMI containing 5% Luria Broth (LB) to improve bacterial growth (BD Difco, cat. no. 244620) to a concentration of ˜5×10^5 CFU (colony-forming units)/mL. […] Later, conjugates 16 and 17, and 20-25 were evaluated in RPMI 1640 medium (+) L-glutamine, (+) sodium bicarbonate, pH 7.4 (“RPMI B”; Gibco, cat. no. 11875-085) as has been described as a more physiologically-relevant media for susceptibility testing of antibacterial compounds. Dorschner R A et al., The mammalian ionic environment dictates microbial susceptibility to antimicrobial defense peptides. FASEB J. 20(1):35-42 (2017). Ninety-eight microliters of each cell suspension in MHB were added to test wells in a 96-well assay plate (Costar cat. no. 3370). A Beckman Multimek 96 liquid handling robot was used to dispense 2 μL of each 50× stock compound into the plate containing 98 μL of each strain in MHB (2% final solvent concentration). E. coli strains BW25113 and ATCC 25922 were run in the presence and absence of 50% heat-inactivated fetal bovine serum (FBS; Sigma, cat. no. F4135-100 mL). Plates were mixed by shaking then incubated at 37° C. overnight (16-20 h).

[3] = test system: Escherichia coli ATCC 25922; assay: MIC assay (broth microdilution), Ec 25922; type: cell-based; conditions: assay media RPMI A; for MIC, Ec 25922 + FBS: 50% heat-inactivated FBS
Description: as §1, §2

[4] = test system: Escherichia coli ATCC BAA-2469; assay: MIC assay (broth microdilution), Ec 2469; type: cell-based; conditions: assay media RPMI A
Description: as §1, §2

[5] = test system: Acinetobacter baumannii ATCC 19606; assay: MIC assay (broth microdilution), Ab 19606; type: cell-based; conditions: assay media RPMI A
Description: as §1, §2

[6] = test system: Acinetobacter baumannii ABS075-UW; assay: MIC assay (broth microdilution), Ab ABS075; type: cell-based; conditions: assay media RPMI A
Description: as §1, §2

[7] = test system: Acinetobacter baumannii ATCC 179778; assay: MIC assay (broth microdilution), Ab 17978; type: cell-based; conditions: assay media RPMI A
Description: as §1
(§4) Briefly, stock solutions of all antibacterial agents were prepared fresh in appropriate solvents (i.e. PBS, pH 7.4, DMSO, DI, etc.). Stock concentrations were made at 50× the highest final assay concentration and serially diluted 2-fold, 8 or 12 times in a 96-well PCR plate (VWR cat. no. 83007-374). Bacterial cell suspensions generated from MHA plate cultures were prepared in 0.85% saline and adjusted to ˜0.1 OD600 nm. Next, cell suspensions were diluted 1:200 in RPMI containing 5% Luria Broth (LB) to improve bacterial growth (BD Difco, cat. no. 244620) to a concentration of ˜5×10^5 CFU (colony-forming units)/mL. […] Later, conjugates 16 and 17, and 20-25 were evaluated in RPMI 1640 medium (+) L-glutamine, (+) sodium bicarbonate, pH 7.4 (“RPMI B”; Gibco, cat. no. 11875-085) as has been described as a more physiologically-relevant media for susceptibility testing of antibacterial compounds. Dorschner R A et al., The mammalian ionic environment dictates microbial susceptibility to antimicrobial defense peptides. FASEB J. 20(1):35-42 (2017). […]

[8] = test system: Pseudomonas aeruginosa ATCC 27853; assay: MIC assay (broth microdilution), Pa 27853; type: cell-based; conditions: assay media RPMI A
Description: as §1, §4

[9] = test system: Pseudomonas aeruginosa PAO1; assay: MIC assay (broth microdilution), Pa PAO1; type: cell-based; conditions: assay media RPMI A
Description: as §1, §3

recombinant mouse FcRn = molecular target: T1, recombinant mouse FcRn (Mus musculus, UniProt Q61559); assay: Binding of conjugates to FcRn (ELISA), mouse; conditions: pH 6.25; 20 μg/mL starting concentration, 2-fold diluted
T1 construct: purchased R&D 6775-FC-050
T1 sequence (Q61559 22-297 limits assumed): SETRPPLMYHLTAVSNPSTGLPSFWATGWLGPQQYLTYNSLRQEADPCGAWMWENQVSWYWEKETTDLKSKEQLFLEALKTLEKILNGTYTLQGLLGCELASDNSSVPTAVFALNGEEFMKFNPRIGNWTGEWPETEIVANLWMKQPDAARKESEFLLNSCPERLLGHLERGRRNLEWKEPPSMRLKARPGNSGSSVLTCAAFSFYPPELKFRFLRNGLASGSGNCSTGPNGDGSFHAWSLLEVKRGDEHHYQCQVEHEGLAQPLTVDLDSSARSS
T1 sequence (P01887 21-119 partner): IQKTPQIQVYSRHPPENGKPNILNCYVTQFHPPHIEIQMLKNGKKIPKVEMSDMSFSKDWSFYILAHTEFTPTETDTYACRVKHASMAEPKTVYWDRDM
Description: 96-well ELISA plates (Fisher, Cat. No. 12-565-136) were coated with 0.25 μg/well of recombinant mouse FcRn (R&D, Cat. No. 6775-FC-050) or recombinant human FcRn (R&D, Cat. No. 8639-FC-050) in carbonate-bicarbonate buffer (Sigma, Cat. No. C34041) at pH 6.25 overnight at 37° C. A pH of 6.25 was maintained during the complete experiment. Blocking was carried out with 5% skim milk in PBS with 0.05% Tween 20. Purified conjugates were added at 20 μg/mL starting concentration and serially 2-fold diluted in blocking buffer. For detection, HRP-labeled secondary anti-mouse IgG-HRP (GE Healthcare, Cat. No. NA931V) or anti-human IgG-HRP (GE Healthcare, Cat. No. NA933V) was used to detect the bound conjugates. Absorbance was measured at 450 nm with a 96-well microplate reader and data were analyzed using GraphPad Prism software, FIGS. 33A-33F.

Row | Molecule | MIC, Ec BW (Escherichia coli BW25113) | MIC, Ec BW + FBS (Escherichia coli BW25113) | MIC, Ec BW (mcr-1) [1] | MIC, Ec BW 4X-12 (COL-R) [2] | MIC, Ec 25922 [3] | MIC, Ec 25922 + FBS [3] | MIC, Ec 2469 [4] | MIC Ab 19606 [5] | MIC Ab AB5075 [6] | MIC Ab 17978 [7] | MIC Pa 27853 [8] | MIC Pa PAO1 [9] | binding to mouse FcRn (ELISA) (recombinant mouse FcRn)
1 | Conjugate 26: "Conjugate of m-IgG2a(His)6 Fc-3(Int-13)"; mlgG2a(His)6 Fc (SEQ ID NO: 6), reduced hinge disulfides; DAR=2/Fc dimer (conjugate, conjugated to Int-13 at hinge cysteines, "Conjugate of m-IgG2a(His)6 Fc-3(Int-13)"; DAR=2/Fc dimer) PRGPTIKPCPPCKCPAPNLLGGPSVFIFPPKIKDVLMISLSPIVTCVVVDVSEDDPDVQISWFVNNVEVHTAQTQTHREDYNSTLRVVSALPIQHQDWMSGKEFKCKVNNKDLPAPIERTISKPKGSVRAPQVYVLPPPEEEMTKKQVTLTCMVTDFMPEDIYVEWTNNGKTELNYKNTEPVLDSDGSYFMYSKLRVEKKNWVERNSYSCSVVHEGLHNHHTTKSFSRTPGKHHHHHH | 16 µg/mL | 32 µg/mL | >128 µg/mL | >128 µg/mL | >128 µg/mL | 128 µg/mL | 32 µg/mL | 128 µg/mL | 32 µg/mL | 64 µg/mL | 16 µg/mL | 64 µg/mL | 
2 | Conjugate 4 (conjugate, cyclised or stapled) PRGPTIKPCPPCKCPAPNLLGGPSVFIFPPKIKDVLMISLSPIVTCVVVDVSEDDPDVQISWFVNNVEVHTAQTQTHREDYNSTLRVVSALPIQHQDWMSGKEFKCKVNNKDLPAPIERTISKPKGSVRAPQVYVLPPPEEEMTKKQVTLTCMVTDFMPEDIYVEWTNNGKTELNYKNTEPVLDSDGSYFMYSKLRVEKKNWVERNSYSCSVVHEGLHNHHTTKSFSRTPGKHHHHHH | 32 µg/mL | 32 µg/mL | >128 µg/mL | >128 µg/mL | >128 µg/mL | 64 µg/mL | >128 µg/mL | 32 µg/mL | 32 µg/mL |  |  | 16 µg/mL | does not interfere with FcRn interaction
